Here are results for four substances from patent US7326418B2, “Identification of novel factors that block programmed cell death or apoptosis by targeting JNK” (University of Chicago, priority 2001, dated 2008).

Ends that are not written are not given here.

The target in one data set is T1, GST-MKK7 (Homo sapiens, UniProt O14733, Q133P/Q94H).
T1 construct: made in house; host or cells: E. coli BL21
T1 sequence (O14733 1-401 Q94H/Q133P limits assumed): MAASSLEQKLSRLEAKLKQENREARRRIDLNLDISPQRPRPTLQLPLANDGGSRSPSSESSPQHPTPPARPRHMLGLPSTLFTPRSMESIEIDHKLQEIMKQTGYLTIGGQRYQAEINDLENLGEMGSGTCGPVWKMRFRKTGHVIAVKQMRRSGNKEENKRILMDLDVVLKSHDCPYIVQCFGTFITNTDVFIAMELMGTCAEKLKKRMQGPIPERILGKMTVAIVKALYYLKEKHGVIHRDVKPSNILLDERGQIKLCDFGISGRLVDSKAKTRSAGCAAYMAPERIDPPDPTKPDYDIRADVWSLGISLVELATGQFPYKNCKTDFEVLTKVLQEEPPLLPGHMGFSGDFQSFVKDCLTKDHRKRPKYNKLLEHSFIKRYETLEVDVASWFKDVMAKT
The data set can be described thus: GST pull-down, GST-MKK7-coated beads with in vitro-translated Gadd45β products. It is filed as binding. How it is done:
GST pull-down assays were performed using GST- or GST-MKK7-coated beads and in vitro-translated, Gadd45β products corresponding to the polypeptidic fragments indicated in FIG. 36A.
To generate Gadd45β polypeptides, in vitro reactions were primed with pBS-GFP-Gadd450 plasmids, encoding green fluorescent protein (GFP) directly fused to FL or truncated Gadd45β. To obtain these plasmids, pBS-Gadd45β(FL), pBS-Gadd45β (41-160), pBS-Gadd45 (60-160), pBS-Gadd45β (69-160), pBS-Gadd45β (87-160), and pBS-Gadd45β (113-160)—encoding the corresponding amino acid residues of murine Gadd45β were generated—by cloning appropriate gadd45β cDNA fragments into the XhoI and HindIII sites of pBS SK−. These plasmids, encoding either FL or truncated Gadd45β, were then opened with KpnI and XhoI, and the excised DNA fragments were replaced with the KpnI-BsrGI fragment of pEGFP-N1 (Clontech; containing the GFP-coding sequence) directly joined to the following oligonucleotide linker: 5′-[…]-3′ (SEQ ID NO: 48). These constructs were designated as pBS-GFP-Gadd45β. Gadd45β C-terminal deletions were obtained as described for the JNKK2 deletions by using pBS-GFP-Gadd45β(FL) that had been digested with the NgoMI, SphI, or EcoRV restriction enzymes to direct protein synthesis in vitro. These plasmids encoded the 1-134, 1-95, and 1-68 amino acid fragments of Gadd45β, respectively. […]

The next data set concerns gadd45β−/− MEFs. The data set can be described thus: Apoptosis assay with TAT peptides, Gadd45β null MEFs. In kind it is cell-based, mouse. The conditions noted are these: HIV-TAT-fused peptides; MEFs at passage 4. An excerpt: (§1) A-B, Apoptosis assays showing that peptide 1 effectively promotes killing by TNFα in IκBαM-Gadd45β and Neo 3DO clones, respectively. C-D, Apoptosis assays showing that both peptide 1 and peptide 2 can facilitate TNFα-induced cytotoxicity in wild-type MEFs, and that only peptide 2 promotes this killing in Gadd45β null MEFs, respectively. (C-D), MEFs were from twin embryos and were used at passage (p)4. A-D, Values (expressed as arbitrary units) were obtained by subtracting background values with untreated cells from values with TNFα-treated cells, and represent the mean (+/−standard deviation) of three experiments.
(§2) Treatments were as follows: murine TNFα (Peprotech), 1,000 U/ml, 10 U/ml, or 1,000 U/ml plus 0.3 μg/ml cycloheximide (CHX; FIG. 33); human TNFα (Peprotech), 2,000 U/ml; PMA plus ionomycin (Sigma), 100 ng/ml and 1 μM, respectively. Treatments with H2O2 and sorbitol were as described previously. In FIG. 33, pre-treatment with HIV-TAT peptides (5 μM) or DMSO was for 30 minutes and incubation with TNFα was for an additional 4 and 3.5 hours, respectively. In FIG. 33, peptides were used at 10 μM and incubation with TNFα was for 4 hours. Apoptosis was measured by using the Cell Death Detection ELISA PLUS kit (Roche). […]

A further data set deals with wild-type MEFs. The data set is described as follows: Apoptosis assay with TAT peptides, wild-type MEFs. It is filed as cell-based, mouse. The conditions noted are these: HIV-TAT-fused peptides; MEFs at passage 4.
From the text: as §1, §2

Another data set addresses T2, GST-Gadd45β (Mus musculus, UniProt P22339).
T2 construct: Murine and human, full-length Gadd45J3 proteins were purified from E. coli as GST-Gadd45β and His6-tagged Gadd45β; made in house; host or cells: E. coli BL21 (pGEX-3X)
T2 sequence (P22339 1-160): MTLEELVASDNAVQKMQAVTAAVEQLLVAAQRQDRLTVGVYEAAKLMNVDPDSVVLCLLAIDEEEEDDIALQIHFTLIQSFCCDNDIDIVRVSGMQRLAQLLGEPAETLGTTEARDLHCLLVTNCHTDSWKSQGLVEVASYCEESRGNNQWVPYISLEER
The data set can be described thus: GST pull-down of in vitro translated MKK7 peptides with GST-Gadd45β. The conditions noted are these: fused to eGFP. It is filed as binding, murine.

Another data set concerns IκBαM-Gadd45β 3DO cells. The data set can be described thus: Apoptosis assay (Cell Death Detection ELISA) with TAT peptides, IκBαM-Gadd45β 3DO clones. The conditions noted are these: for TNFα-induced killing of IκBαM-Gadd45β cells: HIV-TAT-fused peptides 5 μM, 30 min pre-treatment, then TNFα.
Data set [1] addresses T3, MKK7 inhibition by Gadd45β (Mus musculus, UniProt P22339).
T3 construct: Murine and human, full-length Gadd45J3 proteins were purified from E. coli as GST-Gadd45β and His6-tagged Gadd45β; made in house; host or cells: GST-Gadd45β from E. coli; FLAG-MKK7 immunoprecipitated from transfected, TNFα-treated 293 cells
T3 sequence (P22339 1-160): T2 sequence (P22339 1-160)
The data set is described as follows: MKK7 kinase assay: peptide interference with MKK7 inhibition by Gadd45β. It is filed as biochemical. The conditions noted are these: GST-Gadd45β pre-incubated with peptides 20 min; FLAG-MKK7 from TNFα-treated 293 cells. How it is done:
(§3) FLAG-MKK7 was immunoprecipitated from TNFα-treated (10 minutes) 293 cells. b, c, are apoptosis assays showing that peptide 1 promotes killing by TNFα in IκBαM-Gadd45β and Neo clones, respectively. Values (expressed as arbitrary units) were obtained by subtracting background values with untreated cells from values with TNFα-treated cells, and represent the mean (+/−standard deviation) of three experiments.
To define interaction regions and determine whether they are sufficient for binding, Gadd45β association with overlapping peptides spanning these regions (FIG. 29e) was determined. […] This is reminiscent of the mechanism by which p27^KIP1 inhibits cyclin-dependent kinase (CDK)2. A question explored was whether MKK7, Gadd45β-binding peptides interfered with the Gadd45β ability to suppress kinase activity.
GST precipitations with in vitro-translated proteins or purified proteins (FIG. 26-30), and kinase assays were performed. […] MKK7 phosphorylation was monitored by performing immunoprecipitations with anti-P-MKK7 antibodies (developed at Cell Signaling) followed by Western blots with anti-total MKK7 antibodies. […]

Data set [2] relates to Neo 3DO cells (NF-κB-proficient). The data set can be described thus: Apoptosis assay (Cell Death Detection ELISA) with TAT peptides, Neo 3DO clones. It is filed as cell-based. The protocol:
as §3
A-B, Apoptosis assays showing that peptide 1 effectively promotes killing by TNFα in IκBαM-Gadd45β and Neo 3DO clones, respectively. […] A-D, Values (expressed as arbitrary units) were obtained by subtracting background values with untreated cells from values with TNFα-treated cells, and represent the mean (+/−standard deviation) of three experiments.
Treatments were as follows: murine TNFα (Peprotech), 1,000 U/ml (FIG. 27) or 10 U/ml (FIG. 30); human TNFα (Peprotech), 2,000 U/ml; PMA plus ionomycin (Sigma), 100 ng/ml and 1 μM, respectively. […] Apoptosis was measured by using the Cell Death Detection ELISA^PLUS kit (Roche).
Treatments were as follows: murine TNFα (Peprotech), 1,000 U/ml, 10 U/ml, or 1,000 U/ml plus 0.3 μg/ml cycloheximide (CHX; FIG. 33); human TNFα (Peprotech), 2,000 U/ml; PMA plus ionomycin (Sigma), 100 ng/ml and 1 μM, respectively. […] Apoptosis was measured by using the Cell Death Detection ELISA PLUS kit (Roche). […]
(In general: In an ELISA, binding on a coated surface is turned into a signal by an enzyme label.)

Procedure for IκBαM-Gadd45β 3DO cells: Treatments were as follows: murine TNFα (Peprotech), 1,000 U/ml (FIG. 27) or 10 U/ml (FIG. 30); human TNFα (Peprotech), 2,000 U/ml; PMA plus ionomycin (Sigma), 100 ng/ml and 1 μM, respectively. In FIG. 30, pre-treatment with HIV-TAT peptides (5 μM) or DMSO was for 30 minutes and incubation with TNFα was for an additional 7 and 3.5 hours, respectively. Apoptosis was measured by using the Cell Death Detection ELISA^PLUS kit (Roche).
Treatments were as follows: murine TNFα (Peprotech), 1,000 U/ml, 10 U/ml, or 1,000 U/ml plus 0.3 μg/ml cycloheximide (CHX; FIG. 33); human TNFα (Peprotech), 2,000 U/ml; PMA plus ionomycin (Sigma), 100 ng/ml and 1 μM, respectively. […] In FIG. 33, pre-treatment with HIV-TAT peptides (5 μM) or DMSO was for 30 minutes and incubation with TNFα was for an additional 4 and 3.5 hours, respectively. In FIG. 33, peptides were used at 10 μM and incubation with TNFα was for 4 hours. Apoptosis was measured by using the Cell Death Detection ELISA PLUS kit (Roche).

On to “IALQIHFTLIQSFCCDND [69-86 amino acid region of Gadd45β, positions 69-86 of Gadd45β]”, for which, in the data set with GST-MKK7, the “binding to MKK7 in vitro” value is listed as “sufficient to bind to MKK7”.

As to “NH2-TGHVIAVKQMRRSGNKEENKRILMD-COOH (H-TGHVIAVKQMRRSGNKEENKRILMD-OH; listed as Homo sapiens) [peptide 2, aa 142-166 of MKK7/JNKK2]”, the “TNFα-induced killing in gadd45β−/− MEFs” value in the data set with gadd45β−/− MEFs is “retained (and, in fact, enhanced)”. For the same substance, the “cytokine (TNFα)-induced toxicity in wild-type fibroblasts” value in the data set on wild-type MEFs is recorded as “enhanced”. Moreover, the “binding to GST-Gadd45β” value with GST-Gadd45β is recorded as “does not bind”.

For the substance “peptide 1: MKK7 peptide 132-156, Gadd45β-interacting, spans ATP-binding site K149; fused to cell-permeable HIV-TAT peptide for cell assays (GPVWKMRFRKTGHVIAVKQMRRSGN; also: fused to HIV-TAT peptide for cell assays; listed as Homo sapiens)”, the “basal toxicity in IκBαM-Gadd45β cells” value in the data set on IκBαM-Gadd45β 3DO cells (HIV-TAT-fused peptide, no TNFα) is given as “marginal basal toxicity”. Besides, the “TNFα-induced killing of IκBαM-Gadd45β cells” value with IκBαM-Gadd45β 3DO cells is reported as “markedly increased susceptibility”. Besides, in data set [1], the “prevention of MKK7 inhibition by Gadd45β” value is reported as “prevented MKK7 inhibition by Gadd45β”. Further, the “TNFα-induced killing in gadd45β−/− MEFs” value with gadd45β−/− MEFs is “completely insensitive”. Further, the “cytokine (TNFα)-induced toxicity in wild-type fibroblasts” value in the data set with wild-type MEFs was “enhanced”. For the same substance, the “binding to GST-Gadd45β” value in the data set with GST-Gadd45β was “sufficient to recapitulate this binding”. Moreover, the “toxicity in untreated Neo cells” value in data set [2] (HIV-TAT-fused peptide, no TNFα) is listed as “minimal toxicity”. Moreover, the “TNFα-induced killing of NF-κB-proficient (Neo) cells” value in data set [2] (HIV-TAT-fused peptides 5 μM, 30 min pre-treatment, then TNFα) is “promoted TNFα-induced killing”.

Consider “peptide 7: MKK7 peptide 220-234, Gadd45β-interacting; fused to HIV-TAT peptide for cell assays (GKMTVAIVKALYYLK; also: fused to HIV-TAT peptide for cell assays; listed as Homo sapiens)”, for which the “TNFα-induced killing of IκBαM-Gadd45β cells” value in the data set on IκBαM-Gadd45β 3DO cells is reported as “no effect”. For the same substance, the “prevention of MKK7 inhibition by Gadd45β” value in data set [1] is “did not”. The “binding to GST-Gadd45β” value with GST-Gadd45β is recorded as “sufficient to recapitulate this binding”.
